A word on the Kd: it is the free concentration of one partner at which half of the binding sites on the other are occupied at equilibrium, for simple one-to-one binding. A high value points to weaker binding.

Drawing on doi:10.1101/2022.08.30.505862, this text covers binding result, Kd and binding signal for seven molecules.

In one data set the target is T1, GB1-RBM39-RRM12 (UniProt Q14498 143-332).
T1 sequence: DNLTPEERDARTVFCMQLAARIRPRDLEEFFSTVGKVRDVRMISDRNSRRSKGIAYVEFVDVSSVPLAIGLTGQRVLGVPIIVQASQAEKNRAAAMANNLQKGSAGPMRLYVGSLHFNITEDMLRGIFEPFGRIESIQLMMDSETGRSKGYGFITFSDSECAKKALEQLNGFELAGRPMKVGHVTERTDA
The experiment in a line: NMR CSP.

In data set [1] the target is T2, RBM39 RRM2 (UniProt Q14498 247-332).
T2 sequence: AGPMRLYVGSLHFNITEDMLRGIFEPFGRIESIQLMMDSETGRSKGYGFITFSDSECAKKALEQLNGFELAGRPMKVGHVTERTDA
The data set can be described thus: NMR CSP.

For data set [2], the target named is T2, RBM39 RRM2. The experiment in a line: ITC. For orientation: In ITC the heat of successive injections is recorded.
Another data set deals with T3, RBM39 RRM2 F259A (UniProt Q14498 247-332, F259A).
T3 sequence: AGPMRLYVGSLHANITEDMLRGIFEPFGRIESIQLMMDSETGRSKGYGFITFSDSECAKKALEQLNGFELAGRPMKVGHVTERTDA
The data set can be described thus: ITC.

For another data set, the target named is T4, RBM39 RRM12 (UniProt Q14498 143-332).
T4 sequence: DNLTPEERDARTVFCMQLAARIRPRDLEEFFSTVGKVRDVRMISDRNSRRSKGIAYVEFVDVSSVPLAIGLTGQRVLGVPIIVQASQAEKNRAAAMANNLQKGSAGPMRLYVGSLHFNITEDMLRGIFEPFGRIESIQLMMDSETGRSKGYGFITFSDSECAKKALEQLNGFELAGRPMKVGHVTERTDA
The data set can be described thus: NMR CSP.

For the next data set, the target named is T5, RBM39 RRM1 (UniProt Q14498 142-237).
T5 sequence: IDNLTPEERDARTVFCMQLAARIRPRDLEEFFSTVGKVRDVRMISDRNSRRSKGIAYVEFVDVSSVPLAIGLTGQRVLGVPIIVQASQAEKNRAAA
The data set can be described thus: NMR solution structure.

Data set [3] concerns the target T2, RBM39 RRM2. The data set can be described thus: NMR CSP. The source holds these as a separate data set.

Like-named read-outs stand apart in the source and are kept apart here.

As to GGACUGUCCACAAGACAGUCG (structured_RNA) [RBMY stem-loop aptamer], the binding result with GB1-RBM39-RRM12 is recorded as “binds”.
On the same count and under the same terms, as for GGGGACUGCGUUCGCGCUUUCCCC (structured_RNA) [U1 snRNA SL4], the entry is “binds”.
Regarding CCUCCCA (ssRNA) [mutBS1 (CCUCCCA)], the binding result with RBM39 RRM2 [1] was “no binding”.
In the case of AGCUUUG (ssRNA) [AGCUUUG ssRNA], the Kd in the data set with RBM39 RRM2 [2] was found to be 9 ± 2 µM. Besides, the binding signal with RBM39 RRM2 F259A is 4 fold lower affinity than WT.
In the case of GGGAUUUCCCCAAAUGUGGGAAACUCCC (structured_RNA) [U1 snRNA SL3], the binding result with RBM39 RRM12 and with RBM39 RRM1 was “binds” throughout.
Turning to ACCUUUG (ssRNA) [BS2 (ACCUUUG)], the binding result with RBM39 RRM2 [3] is recorded as “binds”.
As to CUCUUUG (ssRNA) [BS1 (CUCUUUG)], in the data set with RBM39 RRM2 [3], the binding result is listed as “binds”.
